Target: GST-LC3B (UniProt Q9GZQ8 1-120)
Test: pull-down

B1: MYC-tagged LIMP2 wild type (natural protein)
chain: MGRCCFYTAGTLSLLLLVTSVTLLVARVFQKAVDQSIEKKIVLRNGTEAFDSWEKPPLPVYTQFYFFNVTNPEEILRGETPRVEEVGPYTYRELRNKANIQFGDNGTTISAVSNKAYVFERDQSVGDPKIDLIRTLNIPVLTVIEWSQVHFLREIIEAMLKAYQQKLFVTHTVDELLWGYKDEILSLIHVFRPDISPYFGLFYEKNGTNDGDYVFLTGEDSYLNFTKIVEWNGKTSLDWWITDKCNMINGTDGDSFHPLITKDEVLYVFPSDFCRSVYITFSDYESVQGLPAFRYKVPAEILANTSDNAGFCIPEGNCLGSGVLNVSICKNGAPIIMSFPHFYQADERFVSAIEGMHPNQEDHETFVDINPLTGIILKAAKRFQINIYVKKLDDFVETGDIRTMVFPVMYLNESVHIDKETASRLKSMINTTLIITNIPYIIMALGVFFGLVFTWLACKGQGSMDEGTADERAPLIRT
B1: binds.

Reference: publication doi:10.1101/2022.12.14.520480 (bioRxiv, 2022)
